Test results reported in the nanobody polyreactivity screen of Harvey et al. (2022).

Experiment: yeast display, Sf9 membrane polyspecificity reagent, FACS + sequencing; frameworks hold sequencing errors
Summary of the method: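 Galactose induction of a Saccharomyces cerevisiae BJ5465 synthetic nanobody display library ran 36–48 hours. The cells were then stained for 1 hour at 4 °C with 10% biotinylated, detergent-solubilized Sf9 membrane reagent, pulled down on streptavidin microbeads and FACS-sorted into low and high (top ~1%) gates on expression and reagent-binding fluorescence. Labels for polyreactivity follow the gate of origin.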

Sequence	polyreactivity (PSR sort gate)
QVQLVESGGGLVQAGGSLRLSCAASGFIFDYYAMGWYRQAPGKERELVAAITSRSGSTYYADSVKGRFTISRDNAKNTVYLQMNSLKPEDTAVYYCAAVYPDYSSARYDYWGQGTQVTVSS	high polyreactivity
QVQLVESGGGLVQAGGSLRLSCAASGRIFDGNAMGWYRQAPGKERELVATITRGGRTNYADSVKGRFTISRDNAKNTVYLQMNSLKPEDTAVYYCNARGSERVDTYSLYDYWGQGTQVTVSS	low polyreactivity
QVQLVESGGGLVQAGGSLRLSCAASGSISSLNTMGWYRQAPGKERELVASISRRGGSTYYADSVKGRFTISRDNAKNTVYLQINSLKPEDTAVFYCAARGVGGTVPTRYDYWGQGTQVTVSS	high polyreactivity
QVQLVESGGGLVQAGGSLRLSCAASGRIFGVYAMGWSRQAPGKERELVAAITARGGSTYYADSVKGRFTISRDNAKNTVYLQMNSLKPEDTAVYYCNAARSTSRPYDYWGQGTQVTVSS	high polyreactivity
QVQLVESGGGLVQAGGSLRLSCAASGFTFSRNTMGWYRPAPGKERELVAAIDSTGGSTYYADSVKGRFTISRDNAKNTVYLQMNSLKPEDTAVYYCATVLPDGRVWYEGYYWGQGTQVTVSS	low polyreactivity
QVQLVESGGGLVQAGGSLRLSCAASGSTFYGYAMGWYRQAPGKERELVAAITSTVITDYADSVKGRFTISRDNAKNTVYLQMNSLKPEDTAVYYCNKDRATRVTAEFRGDDDYWGQGTQVTVSS	low polyreactivity
QVQLVESGGGLVQAGGSLRLSCAASGFTFSYYAMGWYRQAPGKERELVARISFSGTRTYYADSVKGRFTISRDNAKNTVYLQMNSLKPEDTAVYYCAARFGYVGITARYDYWGQGTQVTVSS	high polyreactivity
QGQLVESGGGLVQAGGSLRLSCAASGRSVARYAMGGYRQAPGKERELVAAITVSGDNTYYADSVKGRFTISRDNAKNTVYLQMNSLKPEDTAVYYCAVRAVLLIGFFEYDYWGQGTQVTVSS	low polyreactivity
QVQLVESGGGLVQAGGSLRISCAASGSTFDPNVMGWYRQAPGKERELVAVITTTGVSTYYADSVKGRFTISRDNAKNTVYLQMNSLKPEETAVYYCNAKWYWYLTRDDFRYRYTYDYWGQGTQVTVSS	low polyreactivity
QVQLVESGGGLVQAGGSLRLSCAASGRTFTGYTKGWYRQAPGKEREFVAAISSNGGRTYYADSVKGRFTISRDNAKNTVYLQMNSLKPEDTAVYYCAARYTFWGQGTQVTVSS	high polyreactivity
QVQLVESGGGLVQAGGSLRLSCAASGRIFGWYTMGWYRQAPGKERELVAVISSGGSTNYADSVKGRFTISRDNAKNTVYLQMNSLKPEDTAVYYCAAGGQGGDFGDDYWGQGTQVTVSS	high polyreactivity
QVQLVESGGGLVQAGGSLRLSCAASGKTFVTYAMGWYRQAPGKERELVATISSSGGSTYYADSVKGRFTISRDNAKNTVYLQMNSLKPEDTAVYYCAKQAWAYALYTNFYSGDYGYWGQGTQVTVSS	low polyreactivity
QVLLVESGGGLVQEGGSLRLSCAASGITFDTYAMGGYRQAPGKEREFVASIKWITGNTYYEDSVKGRFTISRDNAKNTVYLQMNSLKTEDTAVYYCAARTYYVRGLGGRPGMDYWGQGTQVTVSS	low polyreactivity
QDQLVESGGGLVQAGGSLRLSCAASGSIFRYYAMGWYIQAPGKERELVAAITNSGGSTYYADSVKGRFTISRDNAKNTVYLQMNSLKPEDTAVYYCNARFRARPRMGYWGQGTQVTVSS	high polyreactivity
QVQLVESGGGLVQAGGSLRLSFADSGLILNFYAKSSYRQAPGKERELVAAISWNAGSTYYADSVKGRFTISREKSMNTGYVQMKSLKPEDTAVYYCAVLPGRYDKTASHYDYWGQGTQVTVSS	low polyreactivity
QVQLVESGGGLVQAGGSLRLSSAASGSNFSRNTMGWYRQAPGKERELVAAITRGGSTDYADSVKGRFTISRDNAKNTVDLQMNSRKPEDTAVYYCAKKNPGWGKFDYWGQGTQVTVSS	low polyreactivity
QVQLVDSGGGLVQAGGILRLSCAASGRIFYYNTMGWSRQAPGKERELVARITYSGGRTYYADSVKGRFTISRDNAKNTVYLQMNSLKPEDTAVYYCAARRRTFYATSSAINGYDYWGQGTQVTVSS	high polyreactivity
QVQLVESGGGLVQAGGSLRLSCAASGSTFTDYDMGWYRQAPGKERELVAAITSGGSTNYADSVKGRFTISRDNAKNTVYLQMISLKPEDTAVYYCAAADADRKYDYWGQGTQVTVSS	low polyreactivity
QVQLGESGGGLVQAGGSLRLSCAASGSIFEVYAMGWYRQAPGKERELVAAINYTGGSTYYADSVKGRFTISRDNAKNTVYLQMNSLKPEDTAVYYCARDTSGIGTRYDYWGQGTQVTLSS	low polyreactivity
QVQLVESGGGLVQAGGSLRLSCAASGGIFFLYAMGWYRQAPGKERELVAAIRQDGGSTYYADSVKGRFTISRDNAKNTVYLQMNSLKPEDTAVYYCNAGYVKTGLEYYYWGQGTQVTVSS	low polyreactivity
QVQLVESGGGLVQAGGSLRLSCAASGRIFDSYAMGWYRQAPGKERELVATISWDSASTYYADSVKGRFTISRDYAKNTVYLQMNSLKPEDTAVYYCAAGGSSSWAFNYWGQGTQVTVSS	low polyreactivity
QVQLVESGGGLVQAGGSLRLSCAASGRTLARNAMGWYRQAPGKERELVASINGRTTRTYYADSVKGRFTISRDNAKNTVYLQMNSLKPEDTAVYYCAADPPGYVYGKRYYWGQGTQVTVSS	high polyreactivity

Sequence	polyreactivity (PSR sort gate)
QVQLVESGGGLDQAGGSLRLSCAASGFIFFRYAMGWYRQAPRKEREMVAAISSSGGSTYYADSVKGRFTISRDNAKNTVYLQMNSLKPEDTAVYFCAAPRYPIFVGLGKDYWGQGTQVTVSS	high polyreactivity
QVQLVESGGGLVQAGGSLRLSCAASGISFGNYAMGWYRQAPGKERELVATISRSGGSTYYADSVKGRFTISRDNAKNTVYLQMNSLKPEDTAVYYCAAQDARRIVYYRYYYWGQGTQVTVSS	high polyreactivity
QVQLVESGGGLVQAGRSLRLSCAASGSTFSHYAMGWYRQAPGKERELFATITGTGVRTYYADSVKGRFTISRDNAKNTVYLQMNSLKPEATAVYFCAVPPSIRGAQAQPWMDYWGQGTQVTVSS	low polyreactivity
QVQLVESGGGLVQAGGSLRLSCAASGRTFRYYAMGWYIQAPGKERELVATITGSGGSTYYADSVKGRFTISRDNAKNTVYLQMNSLKPEDTAVYYCNARKVRYPYRWYDYWGQGTQVTVSS	high polyreactivity
QVQLVESGGGLVQAGGSLRLSCAASGRTFVGNAMGWYRQAPGKERELVADITWSGDITYYADSVKGRFTISRDNAKNTVYLQKNSLKPEDTAVYYCAADYHRRRTDYDYWGQGTQVTVSS	low polyreactivity
QVQLVESGGGLVQAGGSLRLSCAASGRTMGYNTMGWYRQAPGKERELVARISYGGSTYYAESVKGRFTISRDNAKNTVYLQMNSLIPEDTAVYYCAAEARSYRYPYNYWGQGTQVTVSS	high polyreactivity
QVQLVESGGGLVQAGGILRLSCAASGSNFRRNVMWYRQEPGKERELVAGISWRGTSTYYADSVNGRFTISRDNAKNTVYLQMNRLKPEDSAVYYCAALPFVYHRVNEFDYWGQGTQVTVSS	high polyreactivity
QVQLVESGGGLVQAGGSLRLSCAASGGTFNANGMGWYRQAPGKERELVAAISQRAGRTYYADSVKGRFTISRDNAKNTVYLQMNSLKPEDTAVFYCAKRPTDRRFGSGYWGQGTQVTVSS	high polyreactivity
QVQLVESGGGLVQAGGSLRLSCAASGSTFVRYAMGWYRQAPGKERELVAAISGGGSTSYADSVKGRFTISRDNAKNTVYLQMNSLKPEDTAVYYCAAEKYRWENDAYQYYTFDYWGQGTQVTVSS	low polyreactivity
QVQLVESGGGLVQAGGSLRLSCAASGLIFSDNAMGWYRQAPGKEREFVASISDSGTTTYYADSVKGRFTISRDNAKNTVYLQMNSLKPEDTAVYDCNARPGQSGARFGYWGQGTQVTVSS	high polyreactivity
QVQLVESGGGLVQAGGSLRLSCAASMGWYRQAPGKERELVAITRTTRTYYADSVKGRFTISRDNAKNTVYLQMNSLKPEDTAVYYCAAPNGPSPYWYNYWGQGTQVTVSS	low polyreactivity
QVQLVESGGGLVQAGGSLRLSCAASGSIFWGYAMGWYRQAPGKERELVASIGGDSTNYADSVKGRFTISRDNAKNTVYIQMNSLKQEYTPVYYCAARYRTDYYPEYEYWGQGTEVTVSS	low polyreactivity
QVQLVESGGGLVQAGGSLRLTCAASGSIFYWYAMGWYRQAPGKERELVAAISSSGSTNYADSVKGRFTISRDNAKNTVYLQMNSLKPEDTAVYYCGAYRTGYNGWGYGYWGQGTQVTVSS	high polyreactivity
QVQLVESGGGLVQAGGSLRLSCAASGSIFPYYTMGGYRQAPGKERELVAVISSGGSTNYAVSVKGRFTISRDNAKNTVYLQMNSLKPEDTAVYYCNARRYWLRYDYWGLGTQVTVSS	low polyreactivity
QVQLQESGGGLVQAGGSLRLSCAASGNTSDTGYMGWYRQAPGKERKLVASIDYGSNTYYADSVKVRFTISRDNAKNTVYLQMNSLKPEDTAVYYCAAYYIGDYTLVYWGQGTQVTVSS	high polyreactivity
QVQLVESGGGLVQAGGSLRLSCAASGRIFVTYAMGWYRHAPGKERELVAAITSDGSTSYADSVKGRFTISRDNAKNTGYLQMNRLKPEDTAVYYSAKDFFEHSPVSHTYSSSKYEYWGQGTQVTVSS	low polyreactivity
QVQLVESGGGLVQAGGSLRLSCAASGRIFFLNAMGWYRQAPGKERELVATISWTGGSTYYADSVKGRFTISRDNAKNTVDLQMTSLKPEDTAGYYCAKDGTNWGHAFDSWGQGTEVTVSS	low polyreactivity
QVQLVESGGGLVQAGGSLRLSCAASGRTFWFYAMGWYRQAPGKERELVATINYRGGTTYYADSVKGRFTISRDNAKNTVYLQMNSLKPEDTAVYYCAVRPTRTFIYVYWGQGTEVTVSS	high polyreactivity
QVQLEESGGGLVQAGGSLRLSCAASGLIFWAYAMGWYRQAPGKDTELVAAINWRGGSTYYADSVKGRFTISRDNAKNTVYLQMNSLKPEDTAVYFCAGDSSYDEYDYWGQGTQVTVSS	low polyreactivity
QVQLVESGGGLGQAGGSLRLSSAASGRTVSTNDMGWYRHAPGKERELVAAIDFDSDSTYYADSVKGRFTISRDNAKNTVYLQMHSLKPEDTAVYYCAAQYFSYGESYEYWGQGTHVTVSS	low polyreactivity
QVQLVESGGGLVQAGGSLRLSCAASGITFVYYAMGWYRQAPGKDRELVAAITSTGGSTYYADSVKGRFTISRDNAKNTVYLQMNSLKPEDTAVYYCAAVPRGTQGAMDYWGQGTQVTVSS	low polyreactivity
